{"source": "paper doi:10.1101/2024.11.16.623948", "key": {"[1]": {"biological_target": "FLAG-Ago1 (Drosophila melanogaster) (UniProt A1Z9J5)", "sequence (A1Z9J5 entry or part of it)": "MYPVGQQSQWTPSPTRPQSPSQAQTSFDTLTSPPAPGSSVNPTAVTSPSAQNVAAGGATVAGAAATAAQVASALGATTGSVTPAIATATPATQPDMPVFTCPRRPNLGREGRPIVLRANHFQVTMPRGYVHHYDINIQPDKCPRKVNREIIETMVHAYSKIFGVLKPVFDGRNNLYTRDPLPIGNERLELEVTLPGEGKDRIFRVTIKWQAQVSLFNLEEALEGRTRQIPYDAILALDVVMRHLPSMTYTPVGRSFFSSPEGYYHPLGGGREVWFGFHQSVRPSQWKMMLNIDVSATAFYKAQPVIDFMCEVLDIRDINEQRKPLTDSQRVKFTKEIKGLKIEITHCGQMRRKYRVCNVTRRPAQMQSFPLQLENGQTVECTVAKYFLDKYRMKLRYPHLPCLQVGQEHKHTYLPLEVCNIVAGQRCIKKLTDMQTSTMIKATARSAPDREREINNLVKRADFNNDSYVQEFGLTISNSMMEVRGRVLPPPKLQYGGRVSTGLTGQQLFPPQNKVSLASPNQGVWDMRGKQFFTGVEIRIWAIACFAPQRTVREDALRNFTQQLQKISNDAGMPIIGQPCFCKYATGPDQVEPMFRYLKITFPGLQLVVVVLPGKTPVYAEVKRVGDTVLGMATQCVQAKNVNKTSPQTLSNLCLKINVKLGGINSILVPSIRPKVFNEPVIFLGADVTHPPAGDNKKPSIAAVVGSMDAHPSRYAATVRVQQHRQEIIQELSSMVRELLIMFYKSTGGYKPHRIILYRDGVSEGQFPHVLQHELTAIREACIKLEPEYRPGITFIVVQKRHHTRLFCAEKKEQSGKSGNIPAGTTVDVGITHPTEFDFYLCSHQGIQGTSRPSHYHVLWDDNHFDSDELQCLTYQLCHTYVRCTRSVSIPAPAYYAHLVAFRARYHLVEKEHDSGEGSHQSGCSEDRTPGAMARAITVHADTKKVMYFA", "assay": "filter binding", "details": "guide 5' phosphate; RBNS: 20 mM HEPES-KOH pH 7.9, 100 mM KOAc, 3.5 mM Mg(OAc) (magnesium acetate), 0.05% CHAPS, 2 mM DTT, 8% glycerol, BSA, tRNA, 25 C 2 h; filter binding: 25 mM …"}, "PUM2 (human)": {"biological_target": "T1, PUM2 (human) (UniProt Q8TB72)", "T1 sequence": "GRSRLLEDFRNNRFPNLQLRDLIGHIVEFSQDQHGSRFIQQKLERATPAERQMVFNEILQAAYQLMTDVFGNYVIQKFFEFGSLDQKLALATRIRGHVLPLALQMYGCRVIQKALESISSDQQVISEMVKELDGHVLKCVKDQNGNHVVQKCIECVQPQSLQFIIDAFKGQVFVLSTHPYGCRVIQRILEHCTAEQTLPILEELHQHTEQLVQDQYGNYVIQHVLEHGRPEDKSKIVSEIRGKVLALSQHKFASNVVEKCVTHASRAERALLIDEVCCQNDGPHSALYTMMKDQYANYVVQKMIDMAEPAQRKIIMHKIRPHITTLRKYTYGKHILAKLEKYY", "assay": "RBNS", "details": "RBNS: 20 mM HEPES-KOH pH 7.9, 100 mM KOAc, 3.5 mM Mg(OAc) (magnesium acetate), 0.05% CHAPS, 2 mM DTT, 8% glycerol, BSA, tRNA, 25 C 2 h; filter binding: 25 mM …"}}}
{"sequence": "UGAGGUAGUAGGUUGUAUAGU / AAAAAAAAAAAAUCUACCUCU [let-7 / seed-matching target]", "values": [{"measurement": "Kd", "setting": "[1]", "result": 5, "unit": "pM"}]}
{"sequence": "UGAGGUAGUAGGUUGUAUAGU / ACUAUACAACCUACUACCUCA [let-7 / fully complementary target]", "values": [{"measurement": "Kd", "setting": "[1]", "result": 2, "unit": "pM"}]}
{"sequence": "UGUAUAUA [PUM consensus site]", "values": [{"measurement": "Kd", "setting": "PUM2 (human)", "result": 320, "unit": "pM"}]}
